# In the supplement of paper PMC9112550, “Optimization of the antimicrobial peptide Bac7 by deep mutational scanning” (BMC Biology, 2022):
# System: Escherichia coli TOP10
# Assay: shrunken log2 fold change of peptide-encoding DNA abundance (4.5 h post-induction vs induction); higher = less antimicrobial activity (less host growth inhibition)
# Settings: time post-induction: 4.5 h; library: site-saturation at positions 5, 18, 19, 20
# 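Further: peptides expressed intracellularly from a pBAD plasmid library in pooled LB shake-flask culture, induced with 0.3% L-arabinose, DNA abundance read by NGS, three biological replicates, DESeq2 with apeglm shrinkage.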
row,Sequence,shrunken log2 fold change
1,RRIRTRPPRLPRPRPRPQMWPRP,-0.0505
2,RRIRCRPPRLPRPRPRPIRQPRP,-0.0914
3,RRIRGRPPRLPRPRPRPATIPRP,0.138
4,RRIRIRPPRLPRPRPRPVIEPRP,-0.121
5,RRIRIRPPRLPRPRPRPLDRPRP,0.00847
6,RRIRTRPPRLPRPRPRPYHMPRP,-0.293
7,RRIRDRPPRLPRPRPRPRQPPRP,0.252
8,RRIRIRPPRLPRPRPRPNLDPRP,-0.564
9,RRIRERPPRLPRPRPRPEQPPRP,-0.064
10,RRIRDRPPRLPRPRPRPCKWPRP,-0.203
11,RRIRKRPPRLPRPRPRPLDGPRP,0.105
12,RRIRFRPPRLPRPRPRPFEVPRP,-0.571
13,RRIRGRPPRLPRPRPRPWCKPRP,-0.184
14,RRIRGRPPRLPRPRPRPVEFPRP,0.596
15,RRIRTRPPRLPRPRPRPYMCPRP,-0.827
16,RRIRIRPPRLPRPRPRPIRNPRP,-0.236
17,RRIRPRPPRLPRPRPRPMRLPRP,0.0536
18,RRIRSRPPRLPRPRPRPDTFPRP,0.024
19,RRIRARPPRLPRPRPRPREPPRP,0.199
20,RRIRSRPPRLPRPRPRPWVDPRP,-0.0314
21,RRIRTRPPRLPRPRPRPCGYPRP,-0.0816
22,RRIRYRPPRLPRPRPRPIDQPRP,-0.0356
23,RRIRVRPPRLPRPRPRPCCTPRP,-0.247
24,RRIRARPPRLPRPRPRPPWVPRP,0.254
25,RRIRMRPPRLPRPRPRPGFLPRP,0.113

row,Sequence,shrunken log2 fold change
1,RRIRTRPPRLPRPRPRPSVDPRP,-0.108
2,RRIRFRPPRLPRPRPRPYAWPRP,-0.134
3,RRIRLRPPRLPRPRPRPYCLPRP,-0.303
4,RRIRVRPPRLPRPRPRPMVQPRP,0.159
5,RRIRIRPPRLPRPRPRPACAPRP,-0.149
6,RRIRLRPPRLPRPRPRPHSQPRP,-0.0709
7,RRIRRRPPRLPRPRPRPAMVPRP,0.00501
8,RRIRLRPPRLPRPRPRPTHAPRP,0.029
9,RRIRNRPPRLPRPRPRPPSCPRP,-0.134
10,RRIRYRPPRLPRPRPRPETNPRP,0.0266
11,RRIRIRPPRLPRPRPRPLFRPRP,-0.429
12,RRIRWRPPRLPRPRPRPDQWPRP,0.399
13,RRIRQRPPRLPRPRPRPLGQPRP,0.125
14,RRIRKRPPRLPRPRPRPAYYPRP,-0.0726
15,RRIRTRPPRLPRPRPRPDTGPRP,-0.0906
16,RRIRTRPPRLPRPRPRPAYIPRP,0.412
17,RRIRIRPPRLPRPRPRPPFIPRP,-0.755
18,RRIRGRPPRLPRPRPRPNDFPRP,-0.000929
19,RRIRSRPPRLPRPRPRPMGKPRP,-0.00865
20,RRIRQRPPRLPRPRPRPKKWPRP,-0.0403
21,RRIRMRPPRLPRPRPRPEAEPRP,2.18
22,RRIRERPPRLPRPRPRPRYQPRP,-0.227
23,RRIRTRPPRLPRPRPRPSWEPRP,0.0239
24,RRIRHRPPRLPRPRPRPSPKPRP,-0.0976
25,RRIRERPPRLPRPRPRPVNWPRP,-0.0528

row,Sequence,shrunken log2 fold change
1,RRIRIRPPRLPRPRPRPYGSPRP,-0.126
2,RRIRNRPPRLPRPRPRPALIPRP,0.0102
3,RRIRYRPPRLPRPRPRPERCPRP,-0.12
4,RRIRCRPPRLPRPRPRPEWWPRP,-0.00726
5,RRIRPRPPRLPRPRPRPYSQPRP,-1.06
6,RRIRYRPPRLPRPRPRPALKPRP,0.0554
7,RRIRGRPPRLPRPRPRPCNCPRP,0.155
8,RRIRDRPPRLPRPRPRPEWRPRP,1.08
9,RRIRYRPPRLPRPRPRPDNAPRP,-0.0635
10,RRIRRRPPRLPRPRPRPYIIPRP,-0.427
11,RRIRSRPPRLPRPRPRPKQMPRP,-0.0354
12,RRIRFRPPRLPRPRPRPTHKPRP,-0.0458
13,RRIRERPPRLPRPRPRPFLPPRP,-0.701
14,RRIRGRPPRLPRPRPRPSSMPRP,-0.0636
15,RRIRPRPPRLPRPRPRPQSPPRP,0.0713
16,RRIRHRPPRLPRPRPRPLSHPRP,-0.00358
17,RRIRPRPPRLPRPRPRPVMKPRP,-0.00931
18,RRIRNRPPRLPRPRPRPMCEPRP,-0.0162
19,RRIRIRPPRLPRPRPRPNQLPRP,-0.136
20,RRIRIRPPRLPRPRPRPFDMPRP,-0.142
21,RRIRMRPPRLPRPRPRPAYTPRP,-0.0493
22,RRIRQRPPRLPRPRPRPLPLPRP,-0.287
23,RRIRIRPPRLPRPRPRPAQEPRP,-0.0756
24,RRIRPRPPRLPRPRPRPLDWPRP,0.349
25,RRIRRRPPRLPRPRPRPAHIPRP,0.0825

row,Sequence,shrunken log2 fold change
1,RRIRFRPPRLPRPRPRPNHQPRP,-0.736
2,RRIRIRPPRLPRPRPRPGKWPRP,0.0539
3,RRIRQRPPRLPRPRPRPPHQPRP,0.363
4,RRIRWRPPRLPRPRPRPEVIPRP,0.0286
5,RRIRHRPPRLPRPRPRPGSCPRP,-0.108
6,RRIRFRPPRLPRPRPRPVAAPRP,1.41
7,RRIRVRPPRLPRPRPRPEPFPRP,0.0811
8,RRIRPRPPRLPRPRPRPRRAPRP,0.525
9,RRIRSRPPRLPRPRPRPDEQPRP,0.202
10,RRIRDRPPRLPRPRPRPPFRPRP,0.126
11,RRIRGRPPRLPRPRPRPENHPRP,0.455
12,RRIRYRPPRLPRPRPRPLQTPRP,0.0147
13,RRIRQRPPRLPRPRPRPILDPRP,0.0277
14,RRIRARPPRLPRPRPRPVWMPRP,0.0552
15,RRIRPRPPRLPRPRPRPCENPRP,-0.0133
16,RRIRCRPPRLPRPRPRPCPEPRP,1.16
17,RRIRIRPPRLPRPRPRPRWPPRP,0.379
18,RRIRCRPPRLPRPRPRPCARPRP,0.174
19,RRIRLRPPRLPRPRPRPFCGPRP,-0.126
20,RRIRQRPPRLPRPRPRPAKEPRP,-0.0803
21,RRIRIRPPRLPRPRPRPRWRPRP,0.267
22,RRIRERPPRLPRPRPRPDSVPRP,-0.17
23,RRIRPRPPRLPRPRPRPRMQPRP,1.48
24,RRIRRRPPRLPRPRPRPLAIPRP,0.0863
25,RRIRHRPPRLPRPRPRPFFIPRP,-0.393

row,Sequence,shrunken log2 fold change
1,RRIRWRPPRLPRPRPRPSKLPRP,-0.315
2,RRIRCRPPRLPRPRPRPVSEPRP,0.00852
3,RRIRYRPPRLPRPRPRPQNWPRP,-0.611
4,RRIRDRPPRLPRPRPRPVFFPRP,0.208
5,RRIRGRPPRLPRPRPRPKWDPRP,0.771
6,RRIRGRPPRLPRPRPRPCKNPRP,0.397
7,RRIRKRPPRLPRPRPRPAPHPRP,0.79
8,RRIRMRPPRLPRPRPRPTIIPRP,-0.374
9,RRIRWRPPRLPRPRPRPMIRPRP,-0.348
10,RRIRTRPPRLPRPRPRPSHMPRP,-0.7
11,RRIRKRPPRLPRPRPRPLQWPRP,0.0701
12,RRIRQRPPRLPRPRPRPPFAPRP,0.742
13,RRIRERPPRLPRPRPRPGTRPRP,-0.0692
14,RRIRRRPPRLPRPRPRPIARPRP,0.0248
15,RRIRFRPPRLPRPRPRPNSGPRP,-0.166
16,RRIRCRPPRLPRPRPRPIIFPRP,-0.726
17,RRIRVRPPRLPRPRPRPCNPPRP,-0.182
18,RRIRTRPPRLPRPRPRPLMSPRP,0.0356
19,RRIRPRPPRLPRPRPRPGRMPRP,0.318
20,RRIRERPPRLPRPRPRPGMDPRP,-0.696
21,RRIRQRPPRLPRPRPRPVYEPRP,-0.0143
22,RRIRWRPPRLPRPRPRPWHGPRP,-0.368
23,RRIRGRPPRLPRPRPRPEKMPRP,0.59
24,RRIRGRPPRLPRPRPRPRIHPRP,0.273
25,RRIRTRPPRLPRPRPRPGGEPRP,0.443
